Data published in paper PMC7666136.

B1: eGFP-53BP1 (wild-type TP53-binding protein 1 tagged with enhanced green fluorescent protein) [not stated] / itself (parent)
chain: MDPTGSQLDSDFSQQDTPCLIIEDSQPESQVLEDDSGSHFSMLSRHLPNLQTHKENPVLDVVSNPEQTAGEERGDGNSGFNEHLKENKVADPVDSSNLDTCGSISQVIEQLPQPNRTSSVLGMSVESAPAVEEEKGEELEQKEKEKEEDTSGNTTHSLGAEDTASSQLGFGVLELSQSQDVEENTVPYEVDKEQLQSVTTNSGYTRLSDVDANTAIKHEEQSNEDIPIAEQSSKDIPVTAQPSKDVHVVKEQNPPPARSEDMPFSPKASVAAMEAKEQLSAQELMESGLQIQKSPEPEVLSTQEDLFDQSNKTVSSDGCSTPSREEGGCSLASTPATTLHLLQLSGQRSLVQDSLSTNSSDLVAPSPDAFRSTPFIVPSSPTEQEGRQDKPMDTSVLSEEGGEPFQKKLQSGEPVELENPPLLPESTVSPQASTPISQSTPVFPPGSLPIPSQPQFSHDIFIPSPSLEEQSNDGKKDGDMHSSSLTVECSKTSEIEPKNSPEDLGLSLTGDSCKLMLSTSEYSQSPKMESLSSHRIDEDGENTQIEDTEPMSPVLNSKFVPAENDSILMNPAQDGEVQLSQNDDKTKGDDTDTRDDISILATGCKGREETVAEDVCIDLTCDSGSQAVPSPATRSEALSSVLDQEEAMEIKEHHPEEGSSGSEVEEIPETPCESQGEELKEENMESVPLHLSLTETQSQGLCLQKEMPKKECSEAMEVETSVISIDSPQKLAILDQELEHKEQEAWEEATSEDSSVVIVDVKEPSPRVDVSCEPLEGVEKCSDSQSWEDIAPEIEPCAENRLDTKEEKSVEYEGDLKSGTAETEPVEQDSSQPSLPLVRADDPLRLDQELQQPQTQEKTSNSLTEDSKMANAKQLSSDAEAQKLGKPSAHASQSFCESSSETPFHFTLPKEGDIIPPLTGATPPLIGHLKLEPKRHSTPIGISNYPESTIATSDVMSESMVETHDPILGSGKGDSGAAPDVDDKLCLRMKLVSPETEASEESLQFNLEKPATGERKNGSTAVAESVASPQKTMSVLSCICEARQENEARSEDPPTTPIRGNLLHFPSSQGEEEKEKLEGDHTIRQSQQPMKPISPVKDPVSPASQKMVIQGPSSPQGEAMVTDVLEDQKEGRSTNKENPSKALIERPSQNNIGIQTMECSLRVPETVSAATQTIKNVCEQGTSTVDQNFGKQDATVQTERGSGEKPVSAPGDDTESLHSQGEEEFDMPQPPHGHVLHRHMRTIREVRTLVTRVITDVYYVDGTEVERKVTEETEEPIVECQECETEVSPSQTGGSSGDLGDISSFSSKASSLHRTSSGTSLSAMHSSGSSGKGAGPLRGKTSGTEPADFALPSSRGGPGKLSPRKGVSQTGTPVCEEDGDAGLGIRQGGKAPVTPRGRGRRGRPPSRTTGTRETAVPGPLGIEDISPNLSPDDKSFSRVVPRVPDSTRRTDVGAGALRRSDSPEIPFQAAAGPSDGLDASSPGNSFVGLRVVAKWSSNGYFYSGKITRDVGAGKYKLLFDDGYECDVLGKDILLCDPIPLDTEVTALSEDEYFSAGVVKGHRKESGELYYSIEKEGQRKWYKRMAVILSLEQGNRLREQYGLGPYEAVTPLTKAADISLDNLVEGKRKRRSNVSSPATPTASSSSSTTPTRKITESPRASMGVLSGKRKLITSEEERSPAKRGRKSATVKPGAVGAGEFVSPCESGDNTGEPSALEEQRGPLPLNKTLFLGYAFLLTMATTSDKLASRSKLPDGPTGSSEEEEEFLEIPPFNKQYTESQLRAGAGYILEDFNEAQCNTAYQCLLIADQHCRTRKYFLCLASGIPCVSHVWVHDSCHANQLQNYRNYLLPAGYSLEEQRILDWQPRENPFQNLKVLLVSDQQQNFLELWSEILMTGGAASVKQHHSSAHNKDIALGVFDVVVTDPSCPASVLKCAEALQLPVVSQEWVIQCLIVGERIGFKQHPKYKHDYVSH

Variants of: B1
Experiment: Homo-FRET (FAIM, fluorescence anisotropy imaging) in live DIvA cells
Details: with itself; live DIvA cell nuclei, N = 5 cells, two biological replicates; value is the box median; read off a plot

screen value [delta r]	Variant
0.01	chain 1 Y1258A Y1259A
